Data: patent US20220025055A1 (Boehringer Ingelheim, published 2022)

T1: human FLT3 (FMS-like tyrosine kinase 3) (human, UniProt P36888 27-993)
T1 sequence (looked up): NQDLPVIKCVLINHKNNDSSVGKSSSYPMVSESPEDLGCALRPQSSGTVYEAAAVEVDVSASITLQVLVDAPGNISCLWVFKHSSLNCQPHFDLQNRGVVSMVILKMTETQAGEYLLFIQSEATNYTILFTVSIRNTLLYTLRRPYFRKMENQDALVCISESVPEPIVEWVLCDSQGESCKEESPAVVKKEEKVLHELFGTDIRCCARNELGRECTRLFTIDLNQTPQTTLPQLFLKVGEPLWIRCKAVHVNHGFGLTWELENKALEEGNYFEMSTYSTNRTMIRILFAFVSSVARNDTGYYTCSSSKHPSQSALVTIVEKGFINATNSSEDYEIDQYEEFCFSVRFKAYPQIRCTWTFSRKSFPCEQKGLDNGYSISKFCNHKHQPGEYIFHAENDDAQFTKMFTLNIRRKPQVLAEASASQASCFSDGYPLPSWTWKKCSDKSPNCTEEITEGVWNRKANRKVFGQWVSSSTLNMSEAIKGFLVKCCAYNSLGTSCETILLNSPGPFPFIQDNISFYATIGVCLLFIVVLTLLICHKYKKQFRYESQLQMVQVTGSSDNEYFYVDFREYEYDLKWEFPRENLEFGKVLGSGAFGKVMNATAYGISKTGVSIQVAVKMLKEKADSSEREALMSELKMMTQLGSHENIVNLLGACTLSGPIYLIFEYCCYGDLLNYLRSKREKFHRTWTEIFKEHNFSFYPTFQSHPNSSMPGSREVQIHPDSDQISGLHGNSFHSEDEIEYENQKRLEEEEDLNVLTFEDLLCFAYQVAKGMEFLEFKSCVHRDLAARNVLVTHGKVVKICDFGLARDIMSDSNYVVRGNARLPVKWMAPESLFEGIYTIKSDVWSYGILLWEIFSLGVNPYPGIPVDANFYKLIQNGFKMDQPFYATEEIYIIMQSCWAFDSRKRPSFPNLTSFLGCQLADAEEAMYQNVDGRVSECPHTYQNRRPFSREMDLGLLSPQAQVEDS


molecular target: T1, human FLT3 (FMS-like tyrosine kinase 3); assay: cell-based or functional assay

Single dose STAT5-Luc assay, activity relative to NB1016 (chimeric), antibody at 1 nM	Binder
77%	Humanized VH5 x Humanized VL4 (antibody, V domains shown) VH: EVQLVESGGVVVQPGGSLRLSCAPSGFTFSNYGMAWVRQAPGKGLEWVSSIHSGGGDTYYADSVKGRFTISRDNSKNSLYLQMNSLRTEDTALYYCARGRTPTGYYFDHWGQGTMVTVSS VL: DIQMTQSPSSLSASVGDRVTITCRASEGIHNGLAWYQQKPGKAPKRLIYNANSLHSRVPSRFSGSGSGTEFTLTISSLQPEDFATYYCQQYYDYPLTFGQGTKLEIK
90%	Humanized VH4 x Humanized VL2 (antibody, V domains shown) VH: QVQLVESGGGVVQPGRSLRLSCAASGFTFSNYGMAWVRQAPGKGLEWVASIHSGGGDTYYRDSVKGRFTISRDNSKNTLYLQMNSLRAEDTATYYCARGRTPTGYYFDHWGQGTMVTVSS VL: AIQMTQSPSSLSASVGDRVTITCRASEGIHNGLAWYQQKPGKAPKLLIYNANSLHSGVPSRFSGSGSGTDFTLTISSLQPEDFATYYCQQYYDYPLTFGQGTKLEIK
72%	Humanized VH1 x Humanized VL2 (antibody, V domains shown) VH: EVQLLESGGGLVQPGGSLRLSCAPSGFTFSNYGMAWVRQAPGKGLEWVSSIHSGGGDTYYRDSVKGRFTISRDNSKNTLYLQMNSLRAEDTAVYYCARGRTPTGYYFDHWGQGTMVTVSS VL: AIQMTQSPSSLSASVGDRVTITCRASEGIHNGLAWYQQKPGKAPKLLIYNANSLHSGVPSRFSGSGSGTDFTLTISSLQPEDFATYYCQQYYDYPLTFGQGTKLEIK
75%	Humanized VH5 x Humanized VL5 (antibody, V domains shown) VH: EVQLVESGGVVVQPGGSLRLSCAPSGFTFSNYGMAWVRQAPGKGLEWVSSIHSGGGDTYYADSVKGRFTISRDNSKNSLYLQMNSLRTEDTALYYCARGRTPTGYYFDHWGQGTMVTVSS VL: EIVMTQSPATLSVSPGERATLSCRASEGIHNGLAWYQQKPGQAPRLLIYNANSLHSGIPARFSGSGSGTEFTLTISSLQSEDFAVYFCQQYYDYPLTFGQGTKLEIK
81%	Humanized VH3 x Humanized VL2 (antibody, V domains shown) VH: EVQLVESGGGLVQPGGSLRLSCAPSGFTFSNYGMAWVRQAPGKGLVWVSSIHSGGGDTYYRDSVKGRFTISRDNAKNTLYLQMNSLRAEDTAVYYCARGRTPTGYYFDHWGQGTMVTVSS VL: AIQMTQSPSSLSASVGDRVTITCRASEGIHNGLAWYQQKPGKAPKLLIYNANSLHSGVPSRFSGSGSGTDFTLTISSLQPEDFATYYCQQYYDYPLTFGQGTKLEIK
83%	Humanized VH5 x Humanized VL1 (antibody, V domains shown) VH: EVQLVESGGVVVQPGGSLRLSCAPSGFTFSNYGMAWVRQAPGKGLEWVSSIHSGGGDTYYADSVKGRFTISRDNSKNSLYLQMNSLRTEDTALYYCARGRTPTGYYFDHWGQGTMVTVSS VL: DIQMTQSPSSLSASVGDRVTITCRASEGIHNGLAWYQQKPGKVPKLLIYNANSLHSGVPSRFSGSGSGTDFTLTISSLQPEDVATYFCQQYYDYPLTFGQGTKLEIK
91%	Humanized VH1 x Humanized VL4 (antibody, V domains shown) VH: EVQLLESGGGLVQPGGSLRLSCAPSGFTFSNYGMAWVRQAPGKGLEWVSSIHSGGGDTYYRDSVKGRFTISRDNSKNTLYLQMNSLRAEDTAVYYCARGRTPTGYYFDHWGQGTMVTVSS VL: DIQMTQSPSSLSASVGDRVTITCRASEGIHNGLAWYQQKPGKAPKRLIYNANSLHSRVPSRFSGSGSGTEFTLTISSLQPEDFATYYCQQYYDYPLTFGQGTKLEIK

molecular target: T1, human FLT3 (FMS-like tyrosine kinase 3); assay: cell-based or functional assay; remark: another data set of the same source

EC50 in AML5 proliferation assay	Binder
0.051 nM	Humanized VH3 x Humanized VL3 (antibody, V domains shown) VH: EVQLVESGGGLVQPGGSLRLSCAPSGFTFSNYGMAWVRQAPGKGLVWVSSIHSGGGDTYYRDSVKGRFTISRDNAKNTLYLQMNSLRAEDTAVYYCARGRTPTGYYFDHWGQGTMVTVSS VL: AIQLTQSPSSLSASVGDRVTITCRASEGIHNGLAWYQQKPGKAPKLLIYNANSLHSRVPSRFSGSGSGTDFTLTISSLQPEDFATYFCQQYYDYPLTFGQGTKLEIK
0.076 nM	Humanized VH3 x Humanized VL1 (antibody, V domains shown) VH: EVQLVESGGGLVQPGGSLRLSCAPSGFTFSNYGMAWVRQAPGKGLVWVSSIHSGGGDTYYRDSVKGRFTISRDNAKNTLYLQMNSLRAEDTAVYYCARGRTPTGYYFDHWGQGTMVTVSS VL: DIQMTQSPSSLSASVGDRVTITCRASEGIHNGLAWYQQKPGKVPKLLIYNANSLHSGVPSRFSGSGSGTDFTLTISSLQPEDVATYFCQQYYDYPLTFGQGTKLEIK
0.08 nM	Humanized VH2 x Humanized VL1 (antibody, V domains shown) VH: EVQLVESGGGLVQPGGSLRLSCAASGFTFSNYGMAWVRQAPGKGLEWVASIHSGGGDTYYRDSVKGRFTISRDNAKNSLYLQMNSLRAEDTAVYYCARGRTPTGYYFDHWGQGTMVTVSS VL: DIQMTQSPSSLSASVGDRVTITCRASEGIHNGLAWYQQKPGKVPKLLIYNANSLHSGVPSRFSGSGSGTDFTLTISSLQPEDVATYFCQQYYDYPLTFGQGTKLEIK
0.097 nM	Humanized VH1 x Humanized VL5 (antibody, V domains shown) VH: EVQLLESGGGLVQPGGSLRLSCAPSGFTFSNYGMAWVRQAPGKGLEWVSSIHSGGGDTYYRDSVKGRFTISRDNSKNTLYLQMNSLRAEDTAVYYCARGRTPTGYYFDHWGQGTMVTVSS VL: EIVMTQSPATLSVSPGERATLSCRASEGIHNGLAWYQQKPGQAPRLLIYNANSLHSGIPARFSGSGSGTEFTLTISSLQSEDFAVYFCQQYYDYPLTFGQGTKLEIK
0.105 nM	Humanized VH1 x Humanized VL3 (antibody, V domains shown) VH: EVQLLESGGGLVQPGGSLRLSCAPSGFTFSNYGMAWVRQAPGKGLEWVSSIHSGGGDTYYRDSVKGRFTISRDNSKNTLYLQMNSLRAEDTAVYYCARGRTPTGYYFDHWGQGTMVTVSS VL: AIQLTQSPSSLSASVGDRVTITCRASEGIHNGLAWYQQKPGKAPKLLIYNANSLHSRVPSRFSGSGSGTDFTLTISSLQPEDFATYFCQQYYDYPLTFGQGTKLEIK
0.091 nM	Humanized VH4 x Humanized VL3 (antibody, V domains shown) VH: QVQLVESGGGVVQPGRSLRLSCAASGFTFSNYGMAWVRQAPGKGLEWVASIHSGGGDTYYRDSVKGRFTISRDNSKNTLYLQMNSLRAEDTATYYCARGRTPTGYYFDHWGQGTMVTVSS VL: AIQLTQSPSSLSASVGDRVTITCRASEGIHNGLAWYQQKPGKAPKLLIYNANSLHSRVPSRFSGSGSGTDFTLTISSLQPEDFATYFCQQYYDYPLTFGQGTKLEIK
0.095 nM	Humanized VH4 x Humanized VL4 (antibody, V domains shown) VH: QVQLVESGGGVVQPGRSLRLSCAASGFTFSNYGMAWVRQAPGKGLEWVASIHSGGGDTYYRDSVKGRFTISRDNSKNTLYLQMNSLRAEDTATYYCARGRTPTGYYFDHWGQGTMVTVSS VL: DIQMTQSPSSLSASVGDRVTITCRASEGIHNGLAWYQQKPGKAPKRLIYNANSLHSRVPSRFSGSGSGTEFTLTISSLQPEDFATYYCQQYYDYPLTFGQGTKLEIK
0.07 nM	Humanized VH3 x Humanized VL5 (antibody, V domains shown) VH: EVQLVESGGGLVQPGGSLRLSCAPSGFTFSNYGMAWVRQAPGKGLVWVSSIHSGGGDTYYRDSVKGRFTISRDNAKNTLYLQMNSLRAEDTAVYYCARGRTPTGYYFDHWGQGTMVTVSS VL: EIVMTQSPATLSVSPGERATLSCRASEGIHNGLAWYQQKPGQAPRLLIYNANSLHSGIPARFSGSGSGTEFTLTISSLQSEDFAVYFCQQYYDYPLTFGQGTKLEIK
0.091 nM	Humanized VH2 x Humanized VL3 (antibody, V domains shown) VH: EVQLVESGGGLVQPGGSLRLSCAASGFTFSNYGMAWVRQAPGKGLEWVASIHSGGGDTYYRDSVKGRFTISRDNAKNSLYLQMNSLRAEDTAVYYCARGRTPTGYYFDHWGQGTMVTVSS VL: AIQLTQSPSSLSASVGDRVTITCRASEGIHNGLAWYQQKPGKAPKLLIYNANSLHSRVPSRFSGSGSGTDFTLTISSLQPEDFATYFCQQYYDYPLTFGQGTKLEIK
0.082 nM	Humanized VH4 x Humanized VL1 (antibody, V domains shown) VH: QVQLVESGGGVVQPGRSLRLSCAASGFTFSNYGMAWVRQAPGKGLEWVASIHSGGGDTYYRDSVKGRFTISRDNSKNTLYLQMNSLRAEDTATYYCARGRTPTGYYFDHWGQGTMVTVSS VL: DIQMTQSPSSLSASVGDRVTITCRASEGIHNGLAWYQQKPGKVPKLLIYNANSLHSGVPSRFSGSGSGTDFTLTISSLQPEDVATYFCQQYYDYPLTFGQGTKLEIK
0.098 nM	Humanized VH4 x Humanized VL5 (antibody, V domains shown) VH: QVQLVESGGGVVQPGRSLRLSCAASGFTFSNYGMAWVRQAPGKGLEWVASIHSGGGDTYYRDSVKGRFTISRDNSKNTLYLQMNSLRAEDTATYYCARGRTPTGYYFDHWGQGTMVTVSS VL: EIVMTQSPATLSVSPGERATLSCRASEGIHNGLAWYQQKPGQAPRLLIYNANSLHSGIPARFSGSGSGTEFTLTISSLQSEDFAVYFCQQYYDYPLTFGQGTKLEIK
